Laboratory results reported in paper PMC9122601, “A widespread family of WYL-domain transcriptional regulators co-localizes with diverse phage defence systems and islands”.
Changes are numbered by the printed parent chain.

Columns and labels:
[1] = biological target: His6-BrxR from Escherichia fergusonii (Escherichia fergusonii ATCC 35469); assay: SEC; analytical gel filtration, Superdex 200 Increase GL 5/150, 20 mM Tris-HCl pH 7.9, 150 mM NaCl, 0.175 ml/min; 50 μl samples with 5 μl of 1000 nM protein; oligomeric state from elution volume against calibration standards
[2] = biological target: His6-BrxR-R17A from Escherichia fergusonii (Escherichia fergusonii ATCC 35469); assay: as above
[3] = biological target: BrxR from Escherichia fergusonii, untagged (Escherichia fergusonii ATCC 35469); assay: as above
His6-BrxR (BrxR-Efer) [4] = biological target: T1, His6-BrxR (BrxR-Efer) (Escherichia fergusonii (plasmid pEFER), UniProt B7L3Y3 14-308); assay: EMSA; EMSA: 10 mM Tris-HCl pH 7.9, 150 mM KCl, 0.5 mM EDTA, 0.2 mM DTT, 0.1% Triton X-100, 13% glycerol (1x of 5x buffer), 1 ug poly(dI-dC) per 10 ul, 2500 fmol probe, 25 C 30 min; 7% native PAGE in 0.5x TBE; details: protein: recombinant; tags: N-terminal His6; chain copies: 2; label: 5' 6-FAM on reverse strand (primer TRB1068); blunt
T1 sequence: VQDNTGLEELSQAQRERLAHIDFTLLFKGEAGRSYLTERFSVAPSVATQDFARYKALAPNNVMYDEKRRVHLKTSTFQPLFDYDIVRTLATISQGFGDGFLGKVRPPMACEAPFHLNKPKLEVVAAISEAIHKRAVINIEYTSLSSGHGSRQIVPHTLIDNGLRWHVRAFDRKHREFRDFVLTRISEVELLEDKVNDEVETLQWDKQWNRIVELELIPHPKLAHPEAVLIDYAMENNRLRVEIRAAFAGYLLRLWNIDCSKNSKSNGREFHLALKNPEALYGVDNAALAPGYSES

His6-BrxR (BrxR-Efer) [5] = biological target: T1, His6-BrxR (BrxR-Efer); assay: EMSA; only non-specific binding at high protein; EMSA: 10 mM Tris-HCl pH 7.9, 150 mM KCl, 0.5 mM EDTA, 0.2 mM DTT, 0.1% Triton X-100, 13% glycerol (1x of 5x buffer), 1 ug poly(dI-dC) per 10 ul, 2500 fmol probe, 25 C 30 min; 7% native PAGE in 0.5x TBE; details: protein: recombinant; tags: N-terminal His6; chain copies: 2; label: 5' 6-FAM on reverse strand (primer TRB1068); blunt

His6-BrxR from Escherichia fergusonii (natural protein)
stoichiometry N [1]: 2

His6-BrxR-R17A from Escherichia fergusonii (natural protein)
stoichiometry N [2]: 2

BrxR from Escherichia fergusonii, untagged (natural protein)
stoichiometry N [3]: 2

B1: WT IR1-IR2 probe (R7, R-BOX1) (dsDNA)
DNA 1: GACGACTTGTTGATACTATGAAACCTACTGAAAAACAGTAGGTTGCTTGATGGCATTCAATCGATGGCTTAAGCTTTTGTCAGTGCGCA
DNA 2: TGCGCACTGACAAAAGCTTAAGCCATCGATTGAATGCCATCAAGCAACCTACTGTTTTTCAGTAGGTTTCATAGTATCAACAAGTCGTC
Kd (His6-BrxR (BrxR-Efer) [4]): 13 ± 2.7 nM

B2: IR1c-IR2 probe (dsDNA)
DNA 1: B1 DNA 1 with G20C, A21C, A22C, A23C, T26C, A27C, T29C, G30C
DNA 2: B1 DNA 2 with C60G, A61G, T63G, A64G, T67G, T68G, T69G, C70G
Kd (His6-BrxR (BrxR-Efer) [4]): 24 ± 6.5 nM

B3: IR1-IR2c probe (dsDNA)
DNA 1: B1 DNA 1 with A37C, G38C, T39C, A40C, G41C, G42C, T43C, T44C, G45C
DNA 2: B1 DNA 2 with C45G, A46G, A47G, C48G, C49G, T50G, A51G, C52G, T53G
Kd (His6-BrxR (BrxR-Efer) [4]): 85.5 ± 18.7 nM

B4: IR1c-IR2c probe (dsDNA)
DNA 1: GACGACTTGTTGATACTATCCCCCCCCCCCAAAAACCCCCCCCCCCTTGATGGCATTCAATCGATGGCTTAAGCTTTTGTCAGTGCGCA
DNA 2: TGCGCACTGACAAAAGCTTAAGCCATCGATTGAATGCCATCAAGGGGGGGGGGGTTTTTGGGGGGGGGGGATAGTATCAACAAGTCGTC
binding result (His6-BrxR (BrxR-Efer) [5]): no binding
